Test results reported in patent US20030119038A1, “NARC1, novel subtilase-like homologs” (priority 1999, published 2003).
Entries after “also recorded” stand apart in the source; their conditions may differ. Read-outs that look alike come from different tables or passages of the source.

B1: Deletion of residues L147-M425, inclusive: NARC1 subtilase deletion, large; removes entire subtilase domain (protein)
chain: MGIRCSTWLRWPLSPQLLLLLLLCPTGSRAQDEDGDYEELMLALPSQEDSLVDEASHVATATFRRCSKEAWRLPGTYVVVLMEETQRLQVEQTAHRLQTWAARRGYVIKVLHVFYDLFPGFLVKMSSDLLGLALKLPHVEYIEEDSAWFPEDQRVLTPNRVATLPPSTQETGGQLLCRTVWSAHSGPTRTATATARCAPEEELLSCSSFSRSGRRRGDRIEAIGGQQVCKALNAFGGEGVYAVARCCLLPRVNCSIHNTPAARAGPQTPVHCHQKDHVLTGCSFHWEVENLRAQQQPLLRSRHQPGQCVGHQEASVHASCCHAPGLECKIKEHGIAGPAEQVTVACEAGWTLTGCNVLPGASLPLGAYSVDNVCVARIRDAGRADRTSEEATVAAAICCRSRPSAKASWVHQ
modifications: mutant of rat sequence deletion mutant removes amino acids Leu147-Met425, inclusive, of SEQ ID NO9
notes: NARC1 subtilase deletion, large; removes entire subtilase domain
B2: C-terminal truncation Q453: NARC1 terminating at residue Q453; most of the CRR removed (protein)
chain: MGIRCSTWLRWPLSPQLLLLLLLCPTGSRAQDEDGDYEELMLALPSQEDSLVDEASHVATATFRRCSKEAWRLPGTYVVVLMEETQRLQVEQTAHRLQTWAARRGYVIKVLHVFYDLFPGFLVKMSSDLLGLALKLPHVEYIEEDSLVFAQSIPWNLERIIPAWQQTEEDSSPDGSSQVEVYLLDTSIQSGHREIEGRVTITDFNSVPEEDGTRFHRQASKCDSHGTHLAGVVSGRDAGVAKGTSLHSLRVLNCQGKGTVSGTLIGLEFIRKSQLIQPSGPLVVLLPLAGGYSRILNTACQRLARTGVVLVAAAGNFRDDACLYSPASAPEVITVGATNAQDQPVTLGTLGTNFGRCVDLFAPGKDIIGASSDCSTCYMSQSGTSQAAAHVAGIVAMMLNRDPALTLAELRQRLILFSTKDVINMAWFPEDQRVLTPNRVATLPPSTQETGGQ
modifications: mutant of rat sequence truncated sequence ends at amino acid Gln453
B3: Deletion of residues Q218-A392, inclusive: NARC1 subtilase deletion, small; removes much of the subtilase domain including active site residues (protein)
chain: MGIRCSTWLRWPLSPQLLLLLLLCPTGSRAQDEDGDYEELMLALPSQEDSLVDEASHVATATFRRCSKEAWRLPGTYVVVLMEETQRLQVEQTAHRLQTWAARRGYVIKVLHVFYDLFPGFLVKMSSDLLGLALKLPHVEYIEEDSLVFAQSIPWNLERIIPAWQQTEEDSSPDGSSQVEVYLLDTSIQSGHREIEGRVTITDFNSVPEEDGTRFHRGIVAMMLNRDPALTLAELRQRLILFSTKDVINMAWFPEDQRVLTPNRVATLPPSTQETGGQLLCRTVWSAHSGPTRTATATARCAPEEELLSCSSFSRSGRRRGDRIEAIGGQQVCKALNAFGGEGVYAVARCCLLPRVNCSIHNTPAARAGPQTPVHCHQKDHVLTGCSFHWEVENLRAQQQPLLRSRHQPGQCVGHQEASVHASCCHAPGLECKIKEHGIAGPAEQVTVACEAGWTLTGCNVLPGASLPLGAYSVDNVCVARIRDAGRADRTSEEATVAAAICCRSRPSAKASWVHQ
modifications: mutant of rat sequence deletion mutant removes Gln218-Ala392, inclusive, of SEQ ID NO9
B4: S385A: Full-length NARC1 point mutant; mutation of the active site serine (protein)
chain: MGIRCSTWLRWPLSPQLLLLLLLCPTGSRAQDEDGDYEELMLALPSQEDSLVDEASHVATATFRRCSKEAWRLPGTYVVVLMEETQRLQVEQTAHRLQTWAARRGYVIKVLHVFYDLFPGFLVKMSSDLLGLALKLPHVEYIEEDSLVFAQSIPWNLERIIPAWQQTEEDSSPDGSSQVEVYLLDTSIQSGHREIEGRVTITDFNSVPEEDGTRFHRQASKCDSHGTHLAGVVSGRDAGVAKGTSLHSLRVLNCQGKGTVSGTLIGLEFIRKSQLIQPSGPLVVLLPLAGGYSRILNTACQRLARTGVVLVAAAGNFRDDACLYSPASAPEVITVGATNAQDQPVTLGTLGTNFGRCVDLFAPGKDIIGASSDCSTCYMSQSGTAQAAAHVAGIVAMMLNRDPALTLAELRQRLILFSTKDVINMAWFPEDQRVLTPNRVATLPPSTQETGGQLLCRTVWSAHSGPTRTATATARCAPEEELLSCSSFSRSGRRRGDRIEAIGGQQVCKALNAFGGEGVYAVARCCLLPRVNCSIHNTPAARAGPQTPVHCHQKDHVLTGCSFHWEVENLRAQQQPLLRSRHQPGQCVGHQEASVHASCCHAPGLECKIKEHGIAGPAEQVTVACEAGWTLTGCNVLPGASLPLGAYSVDNVCVARIRDAGRADRTSEEATVAAAICCRSRPSAKASWVHQ
modifications: mutant of rat sequence mutating amino acid Ser385Ala of SEQ ID NO9
B5: H225W, S385A: Full-length NARC1 double mutant; active site histidine and serine mutated (protein)
chain: MGIRCSTWLRWPLSPQLLLLLLLCPTGSRAQDEDGDYEELMLALPSQEDSLVDEASHVATATFRRCSKEAWRLPGTYVVVLMEETQRLQVEQTAHRLQTWAARRGYVIKVLHVFYDLFPGFLVKMSSDLLGLALKLPHVEYIEEDSLVFAQSIPWNLERIIPAWQQTEEDSSPDGSSQVEVYLLDTSIQSGHREIEGRVTITDFNSVPEEDGTRFHRQASKCDSWGTHLAGVVSGRDAGVAKGTSLHSLRVLNCQGKGTVSGTLIGLEFIRKSQLIQPSGPLVVLLPLAGGYSRILNTACQRLARTGVVLVAAAGNFRDDACLYSPASAPEVITVGATNAQDQPVTLGTLGTNFGRCVDLFAPGKDIIGASSDCSTCYMSQSGTAQAAAHVAGIVAMMLNRDPALTLAELRQRLILFSTKDVINMAWFPEDQRVLTPNRVATLPPSTQETGGQLLCRTVWSAHSGPTRTATATARCAPEEELLSCSSFSRSGRRRGDRIEAIGGQQVCKALNAFGGEGVYAVARCCLLPRVNCSIHNTPAARAGPQTPVHCHQKDHVLTGCSFHWEVENLRAQQQPLLRSRHQPGQCVGHQEASVHASCCHAPGLECKIKEHGIAGPAEQVTVACEAGWTLTGCNVLPGASLPLGAYSVDNVCVARIRDAGRADRTSEEATVAAAICCRSRPSAKASWVHQ
modifications: mutant of rat sequence mutating amino acid His225Trp and Ser385Ala of SEQ ID NO9

Columns and labels:
NARC1 transfectants = system: NARC1 transfectants
Procedure: Following transient expression of this construct in CGNs, the percentage of GFP positive and GFP negative cells undergoing apoptosis was determined by Laser-Scanning Cytometry.
Following transient expression of the wild-type and point-mutant NARC1 constructs in CGNs, the percentage of GFP-positive cells undergoing apoptosis was determined by Laser-Scanning Cytometry.
The serine protease inhibitors Aminoethyl-benzene sulfonyl fluoride, an irreversible inhibitor (AEBSF), Aprotinin, a reversible inhibitor, and N-Tosyl-lysine-chloromethylketone (TLCK, an inhibitor known to covalently bind to serine proteases) were investigated to see if any of these reagents can rescue the cell death effects of wild-type NARC1. Caspase 9 transfection was included to test for specificity of any rescue effects.
CGNs were transfected with each of the C-terminal truncation mutants described above. Following transient expression of these constructs, the percentage of GFP positive cells undergoing apoptosis was determined by Laser-Scanning Cytometry.

NARC1 = test: Autoprocessing of NARC1 transiently expressed in COS-7 cells, Western blotting; type: cell-based, rat; settings: C-terminal myc/His fusion transiently expressed in COS-7 cells, 60 kD processing product on Western blot
Procedure: The wild-type NARC1-myc/His clone was transiently expressed in COS-7 cells. The cells were then harvested, lysed, and the protein extracted. Polyacrylamide gel electrophoresis was then carried out on the protein extracts, followed by Western blotting. The resulting membranes were probed using both anti-myc- and NARC1-specific antibodies. Routine techniques and protocols were followed. See, e.g., Ausubel et al.(1998), supra.
This cleavage event maps to approximately the junction between the pro-domain and the enzymatic domain.
Autoprocessing of NARC1 was investigated as follows. COS-7 cells were co-transfected with the following EGFP and myc plasmids: (A) wild-type NARC1-myc and wild-type NARC1-EGFP; (B) S385A NARC1-myc and S385A NARC1-EGFP; and (C) wild-type NARC1-myc and S385A NARC1-myc. The cells were then harvested, lysed, and the protein extracted. Polyacrylamide gel electrophoresis was then carried out on the protein extracts, followed by Western blotting. The resulting membranes were sequentially probed using first the anti-myc and then the anti-EGFP monoclonal antibodies (Abs). Thus, the experiment allowed sequential detection of the separate NARC1 products encoded from the two co-transfected plasmids.
As indicated above, a series of C-terminal truncation mutants were generated. The truncation NARC1-myc/His clones were transiently expressed in COS-7 cells. The cells were then harvested, lysed, the protein extracted, and polyacrylamide gel electrophoresis carried out on the protein extracts. Western analysis was then carried out using both anti-myc and NARC1-specific antibodies.

[1] = system: cerebellar granule neurons (CGNs); test: Apoptosis after transient expression of NARC1-EGFP constructs in CGNs, Laser-Scanning Cytometry; type: cell-based, rat; settings: for Resulting Cell Death Activity: EGFP construct transiently expressed in CGNs, percentage of GFP-positive cells undergoing apoptosis
Source text: Cerebellar granule neurons (CGNs) were transfected with a NARC1-enhanced green fluorescent protein (EGFP) expression construct (with the EGFP sequences located at the carboxy terminus of the fusion protein). Unless otherwise indicated, the construct utilized in the following experiments contained 2073 base pairs of the rat NARC1 transcript set forth in FIG. 5. Specifically, this corresponds to nucleotides 205-2277 and amino acid residues 56-746 of SEQ ID NO:4 and SEQ ID NO:3, respectively. The polypeptide sequence encoded by the NARC1 insert utilized herein has been set forth as SEQ ID NO:9 herein. The nucleotide sequence of this insert has been set forth as SEQ ID NO:10.
To investigate NARC1-mediated neuronal cell death, transient expression of the EGFP clones was carried out in cerebellar granule neurons (CGNs). These studies are set forth in detail as follows.

Ntera2 cells = test: NARC1-EGFP transfection of Ntera2 cells, nuclear area condensation; type: cell-based, human; settings: C-terminal EGFP constructs, 24 hours
Procedure: Specifically, Ntera2 cells were transfected with C-terminal EGFP constructs of wild-type NARC1, each of the point-mutant NARC1s, and caspase 9. At 24 hours, nuclear area condensation was assessed for the entire Ntera2 cell population and compared to nuclear area condensation for the transfected cell population.

Row | Molecule | Autoprocessing Activity (NARC1) | Resulting Cell Death Activity [1] | also measured
1 | N-Tosyl-lysine-chloromethylketone [TLCK] |  |  | Rescue of cell death in NARC1 transfectants (NARC1 transfectants; 24-hour exposure): some suggestion of rescue; Rescue of cell death in NARC1 transfectants (NARC1 transfectants; 48-hour exposure): increased effectiveness
2 | Aprotinin |  |  | Rescue of cell death in NARC1 transfectants (NARC1 transfectants; 24-hour exposure): some suggestion of rescue; Rescue of cell death in NARC1 transfectants (NARC1 transfectants; 48-hour exposure): increased effectiveness
3 | B1 | Absence of processing. | Reduced activity. | 
4 | B2 | Normal processing. | Induces wild type | BAF sensitivity of induced cell death ([1]; CGNs, 100 μM BAF): insensitive.
5 | B3 | Absence of processing. | Reduced activity. | 
6 | B4 | absence of autoprocessing; also recorded: eliminate NARC1 autoprocessing; also recorded: Absence of processing | reduced, but still substantial, pro-apoptotic effect; also recorded: somewhat reduce the pro-apoptotic effect; also recorded: Reduced activity | Sensitivity of cells to expression (nuclear area condensation) (Ntera2 cells): equally sensitive
7 | B5 | eliminate NARC1 autoprocessing; also recorded: Absence of processing | somewhat reduce the pro-apoptotic effect; also recorded: Reduced activity | Autoprocessing Activity (NARC1; listed as double mutant): absence of autoprocessing; Resulting Cell Death Activity ([1]; listed as double mutant): reduced, but still substantial, pro-apoptotic effect; Sensitivity of cells to expression (nuclear area condensation) (Ntera2 cells): equally sensitive
